For orientation: Kd means a measure of binding affinity in units of concentration.

This is an account of results in article PMC6168491, “Sin3A recruits Tet1 to the PAH1 domain via a highly conserved Sin3-Interaction Domain” (Scientific Reports, 2018).

Where a chain is given by its changes, count along the chain named. Numbers in names are those of the source. Where two headings read alike, the source gives them in different places. Some results are limits rather than exact numbers.

This assay has as its target T1, PAH1(115–212) for NMR (UniProt Q60520 115-212).
T1 construct: Sin3A PAH1 domain, residues 115–212; Same construct as m29; also called apo-PAH1; 15N-labelled PAH1(115–212); source: 15N labelled in M9 minimal media
T1 sequence (looked up): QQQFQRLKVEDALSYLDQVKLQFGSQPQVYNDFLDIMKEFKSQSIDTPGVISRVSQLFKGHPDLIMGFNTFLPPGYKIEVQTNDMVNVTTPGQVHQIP
In words: NMR titration; 15N-HSQC of 150 µM 15N-labelled PAH1(115–212) with 150 µM unlabelled Tet1(878–911) (1:1; also sub-stoichiometric ratio); 303 K; 20 mM Tris-HCl pH 7.4, 50 mM NaCl, 1 mM DTT; average minimal shift analysis.

For the molecule “Tet1-SID(878–911) L897A for NMR (from UniProt Q3URK3 861-894) (domain or fragment)”, the Δδmin (average minimal shift, relative to the WT complex) was 0.118 and the Δδmin (average minimal shift, relative to the apo-protein) stood at 0.061.

B1: Tet1-SID(878–911) for NMR (domain or fragment, UniProt Q3URK3 861-894, looked up)
chain: LSLMKDRRLTLEQVVAIEALTQLSEAPSESSSPS
notes: Same construct as m24; also called WT
B1: under “both partners purified”, the dissociation constant Kd is less than 100 nM.

B2: Tet1-SID(878–911) L900A for NMR (domain or fragment, UniProt Q3URK3 861-894, looked up)
chain: B1 chain with L23A
notes: Tag removal for NMR was conducted as needed
Take B2: the “Δδmin (average minimal shift, relative to the WT complex)” value (both partners purified) stood at 0.074.

B3: Tet1-SID(878–911) T898E for NMR (domain or fragment, UniProt Q3URK3 861-894, looked up)
chain: B1 chain with T21E
notes: as for B2
B3: the “Δδmin (average minimal shift, relative to the WT complex)” value (both partners purified) was determined as 0.038.

B4: Tet1-SID(878–911) T898A for NMR (domain or fragment, UniProt Q3URK3 861-894, looked up)
chain: B1 chain with T21A
notes: as for B2
In the case of B4, the “Δδmin (average minimal shift, relative to the WT complex)” value (both partners purified) is 0.026.

B5: Tet1-SID(878–911) I894A for NMR (domain or fragment, UniProt Q3URK3 861-894, looked up)
chain: B1 chain with I17A
notes: as for B2
For the molecule B5, the “Δδmin (average minimal shift, relative to the WT complex)” value (both partners purified) is 0.061.
